Laboratory results: article PMC6327041 (Nature Communications, 2019)

Biological target: T1, KDM5A1-797 (Homo sapiens, UniProt P29375)
T1 construct: KDM5A1-797 was cloned into a pFASTBAC HTA vector; His (N, cleaved yes); made in house; host or cells: Sf21 insect cells (baculovirus)
T1 sequence (P29375 1-797): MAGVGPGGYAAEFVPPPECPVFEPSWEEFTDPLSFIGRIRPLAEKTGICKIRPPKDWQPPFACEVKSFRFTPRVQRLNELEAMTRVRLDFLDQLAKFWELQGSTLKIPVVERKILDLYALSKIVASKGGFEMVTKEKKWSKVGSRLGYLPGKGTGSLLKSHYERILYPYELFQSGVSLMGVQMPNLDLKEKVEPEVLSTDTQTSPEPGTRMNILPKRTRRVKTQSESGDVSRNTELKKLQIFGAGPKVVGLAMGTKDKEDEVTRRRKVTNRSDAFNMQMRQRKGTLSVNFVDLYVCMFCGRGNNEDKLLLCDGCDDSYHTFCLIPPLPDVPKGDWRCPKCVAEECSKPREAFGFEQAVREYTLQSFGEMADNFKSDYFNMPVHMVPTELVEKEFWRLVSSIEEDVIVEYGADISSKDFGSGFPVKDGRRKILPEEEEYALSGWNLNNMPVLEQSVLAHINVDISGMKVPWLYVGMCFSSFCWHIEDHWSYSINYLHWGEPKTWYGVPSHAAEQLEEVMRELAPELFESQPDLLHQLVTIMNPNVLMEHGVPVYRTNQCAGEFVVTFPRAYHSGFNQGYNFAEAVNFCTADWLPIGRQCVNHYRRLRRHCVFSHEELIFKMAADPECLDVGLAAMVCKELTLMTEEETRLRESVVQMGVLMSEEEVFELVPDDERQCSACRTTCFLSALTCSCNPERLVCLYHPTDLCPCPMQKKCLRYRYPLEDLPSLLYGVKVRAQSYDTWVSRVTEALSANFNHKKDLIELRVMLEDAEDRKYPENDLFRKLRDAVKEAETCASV
Experiment: Lysine crosslinking MS
Conditions: H3 effector peptide 40 µM, BS^3-H12/D12, 1 h, 4 °C
Description: Hundred micrograms of KDM5A1-797 was crosslinked with 1 mM BS^3-H12 for 1 h at 4 °C. […] After quenching with 50 mM Tris-base, the light and heavy crosslinked reaction mixtures were combined and precipitated with ice cold acetone. Crosslinked proteins were pelleted by spinning at 21,000 × g, the supernatant was removed, and the pellet was washed once with cold acetone. The precipitate was brought up in 8 M Urea, 10 mM TCEP, heated at 56 °C for 20 min, and then alkylated with 15 mM iodoacetamide (45 min at room temperature). The sample was diluted to 2 M Urea and digested […] with 0.8 µg trypsin for 4 h at 37 °C. A second aliquot of trypsin was then added and digestion was allowed to proceed overnight. […]
LC-MS analysis was performed with a Q-Exactive Plus mass spectrometer (Thermo Scientific) coupled with a nanoelectrospray ion source (Easy-Spray, Thermo) and NanoAcquity UPLC system (Waters). […] Precursor MS scans were measured in the Orbitrap scanning from 350 to 1500 m/z (mass resolution: 70,000). The ten most intense triply charged or higher precursors were isolated in the quadrupole (isolation window: 4 m/z), dissociated by HCD (normalized collision energy: 23), and the product ion spectra were measured in the Orbitrap (mass resolution: 17,500). […]
For quantitative analysis, precursor ion filtering in Skyline 4.1 was used to extract light:heavy crosslinked precursor ion signals. […]

“H3: unmodified N-terminal H3 tail 10mer peptide (H3 Ala1-Ser10), PHD1 effector ligand” was tested, and the “changes in lysine crosslinks” value was “minor changes in crosslink occupancy and distribution”.
